The target in this test is T1, Side-VI (Drosophila, UniProt Q0KI85).
T1 chain: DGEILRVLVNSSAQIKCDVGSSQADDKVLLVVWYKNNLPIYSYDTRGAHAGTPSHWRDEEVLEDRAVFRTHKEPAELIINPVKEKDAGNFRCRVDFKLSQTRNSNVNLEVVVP
Briefly: SPR equilibrium, monomer ECD.

B1: Beat-Vb (protein)
chain: LRVTDINVPQIVDFRDNVTLSCSYDISGHTLNSVKWYKNGKEFFRYSPLTPPTYIPFAVEGVQLIDDGNECNESSCRVELNLLGVKSSGVYRCEVSGDAPHFQLTARDANMTVEAL
As a reminder, the Kd is the constant that tells how readily two partners part at equilibrium. Low values mean tighter binding, high ones weaker binding. Take B1: binding was put at a Kd of 2.3 µM.

B2: Beat-Va (protein)
chain: LFVTDISVPEIVDFRDNVTLSCSYDMRGHTLNSVKWYKDHEEFFRYSPLTSPIYMTFDVAGLQVLEGKYVCNESSCRLDLSLQGAKSTGLYKCEVSGDAPHFKLADKADNMTVAA
In turn, B2 had a Kd of 0.76 µM.

The values above are taken from PMC5578738 (2017).
